We go through 17 molecules from patent US20090004212A1, “Tumour vaccines for MUC1-positive carcinomas” (priority 1997, published 2009).

Test [1] concerns the target T1, human 20S immunoproteasomes (Homo sapiens, UniProt P28062+P28065+P40306).
T1 construct: purchased Immatics Biotechnologies (Tübingen, Germany)
Briefly: In vitro proteolysis of MUC1 repeat peptides and glycopeptides by immunoproteasomes. Format: biochemical. The note with it: for AHG 8 to -11 / PAP8 to -11 / SAP8 to -11: 8- to 11-meric fragments with this N-terminus, % of total 8- to 11-mers; for AVERAGE FRAGMENT LENGTH / NUMBER OF FRAGMENTS: digest by immunoproteasomes; for NUMBER OF FRAGMENTS: HPLC and MALDI-MS; for % of glycopeptide: glycosylated 8- to 11-meric fragments relative to total 8- to 11-mers; for 8-11 mers (%): relative to total amount of digestion products of immunoproteasomal cleavage. The procedure: A 1 mg/ml solution of immunoproteasomes prepared according to a published protocol (20) was purchased from Immatics Biotechnologies (Tübingen, Germany) and stored frozen at −80° C.
Glycopeptides were incubated with 10 μg of human 20S immunoproteasomes (Immatics) for […], at 37° C., in 10 μl of digestion buffer (20 mM HEPES/KOH, pH 7.6 containing 2 mM Mg(CH3COO)2 and 1 mM DTT) as described (13). Digestion was stopped after 24 h by freezing the sample at −80° C. Human cathepsin-L was purchased from Sigma (Munich, Germany) and solubilized in 0.1 M sodium acetate, pH 5.5, containing 1 mM EDTA and 1 mM dithiothreitol (12). About 5 mU of enzyme were added to sialoglycopeptide substrates SGGP1 to SGGP5 (75-100 μM) in a total volume of 20 μl. The reaction mixtures were incubated at 37° C. for 24 h and 1 μl of trifluoroacetic acid was added to stop the reaction. The reaction products were cleaned by solid-phase extraction on ZipTipC18 pipette tips and 0.5 μl aliquots were applied onto the MALDI target for mass spectrometric analysis. Kinetic studies with the non-glycosylated 100-mer P1 were performed under the same conditions and the products were chromatographed on HPLC for purification and quantification.

Test [2] has as its system DC2.4 mouse dendritic cells. The experiment in a line: Cellular processing and cross-presentation in mouse dendritic cell line, peptides eluted from exosomal MHC. The test is classed as cell-based. The procedure: Poly-lactic acid based vesicles were generated mixing two solutions: Solution A: 200 nmol of P2 peptide (1 mg) resolved in 3% cold water solution of poly-vinyl alcohol; Solution B: 5% poly-lactic acid in a mixture of ethanol and acetone (9:1, v/v). Solution B (30 ml) was slowly added to solution A (150 ml) under constant mixing and stirring overnight at room temperature. The next day the mixture was centrifuged at 10.000×g for 10 min and washed three times with PBS (200 ml), followed by centrifugation steps as mentioned previously. The generated vesicles were resuspended in 330 μl of PBS and added to media of 4×108 DC2.4 mouse dendritic cells growing confluent in nine cell culture flasks (300 cm^2). The cells were grown as usual, but in exosome-depleted medium.
Cells were incubated with PLA-vesicles for 24 h at 37° C. and 5% CO2. The cell culture supernatant was collected and exosomes were isolated by ultracentrifugation (see below). Isolated exosomes were resuspended in 100 μl 0.1% TFA/H2O. Acidification of exosomes denatures tertiary MHC complex and releases bound peptide epitopes. The solution was shortly spun and injected on a HPLC narrow-bore ODS column for separation of eluted peptides and glycopeptides. Fractions were collected manually, dried and analyzed by MALDI-TOF-MS as described. Molecular masses of detected ions were analyzed by the FindPep software and by nanospray ESI-MS/MS analyses.
Exosomes were isolated from FCS or cell culture supernatant by subsequent centrifugation steps: 10 min/1200 g; 30 min/10000×g; 30 min/20.000×g; and 60 min/[…]. The exosomes were pelleted in the final centrifugation step, washed with PBS and used for further analyses. For the depletion of FCS from exosomes, exosomes from serum were pelleted by ultracentrifugation at 110.000×g for 1 h.

A further test concerns the target T2, HLA-A0201 (Homo sapiens, UniProt P04439, D140Y/D185E/D98H/E176V/E277Q/G131W/G231S/I119V/I121R/I166T/I218V/L300P/L318F/N151K/N90K/P208A/P217A/Q86G/Q94H/R138H/R169H/T345S).
T2 construct: endogenous in cells; host or cells: T2 cell line (TAP-deficient)
The experiment in a line: MHC stabilization assay on T2 cells. The test is classed as binding. Conditions: for ligation strength (binding to HLA-A0201): T2 cells, 100 μg peptide, 16 h, W6/32 antibody, FACS; for change of ligation strength by introduction of GalNAc: glycosylated versus non-glycosylated form. The procedure:
MHC stabilization assay is based on the increased affinity of HLA-A, -B, -C specific monoclonal W6/32 antibody for the stabilized conformation of MHC molecules after binding of a peptide ligand. The T2 cells express empty MHC molecules with short half-life.
For MHC stabilization assay T2 cells were grown in IMDM medium supplemented with 2% FCS. T2 cells were washed in PBS from the residual serum, and resuspended at 1×10^6/ml of IMDM supplemented with 0.1% FCS and 25 mM HEPES. Half of a million of cells were incubated in 48-well cell culture plate with 1 μg of […]2-microglobulin and 100 μg of peptide for 16 h at 27° C. and 8% CO2. Cells were washed with 5 ml PBS, centrifuged at 180×g for 5 min and the pellet was resuspended in 10 μl PBS containing 1 μg of W6/32 antibody and incubated at 4° C. for 30 minutes.
Subsequently, cells were washed in PBS with 1% BSA (3×5 ml) and the pellet was resuspended in 50 μl of secondary anti-mouse Alexa 488 antibody (1:1000 in PBS with 0.1% BSA), incubated for 30 minutes in the dark, washed with PBS (3×5 ml) and resuspended in 500 μl of PBS. Binding of the W6/32 antibody to MHC class I molecules was analyzed by FACS on the Beckman Coulter ADCXL4C flow cytometer. As a positive control hepatitis B virus core antigen HBVc18-27 P6Y˜C ([…]) was used. As a negative control T2 cells were used, to which no peptide was added.
Relative binding capacities of the peptides were expressed as the percent of the positive control signal (100%), normalized to the negative control (0%). A mean fluorescence that was at least 10% higher than the negative control level was considered positive binding.

Values joined by “and” are separate entries in the source; they are usually repeats but may differ in a detail not shown here. Identical values can stand only once. No end group written: not given here. O‑glycan = not defined here

Take “AHGVTSAPESRPAPGSTAPPA [GP6] (AHGVTSAPES(O‑glycan)RPAPGSTAPPA; reading uncertain; also: glycan structure not given here; listed as Homo sapiens) [MUC1 glycopeptide, glycosylated within the ESR motif]”: in test [1], the “AHG 8 to -11” value amounted to 55%, the “PAP8 to -11” value is 3%, the “SAP8 to -11” value amounted to 42% and the “AVERAGE FRAGMENT LENGTH” value is listed as 10.6. Besides, in test [1], the “NUMBER OF FRAGMENTS” value came to 46; the “% of glycopeptide” value was 98% and 96%; the “8-11 mers (%)” value is recorded as 35%.

Consider “AHGVTSAPESRPAPGSTAPPA [GP5] (AHGVT(O‑glycan)SAPESRPAPGSTAPPA; not fully specified; reading uncertain; also: glycan structure not given here; listed as Homo sapiens) [MUC1 glycopeptide, glycosylated threonine within the VTS motif]”, for which, in test [1], the “AHG 8 to -11” value is given as 26%, the “PAP8 to -11” value is 47%, the “SAP8 to -11” value was found to be 27% and the “AVERAGE FRAGMENT LENGTH” value turned out to be 11.6. In addition, in test [1], the “NUMBER OF FRAGMENTS” value is given as 46, the “% of glycopeptide” value is 26% and the “8-11 mers (%)” value is 79%.

For “AHGVTSAPESRPAPGSTAPPA [P4] (fragment of digested MUC1; listed as Homo sapiens) [Peptide P4]”, in test [1], the “AVERAGE FRAGMENT LENGTH” value worked out at 11.6, the “NUMBER OF FRAGMENTS” value came out at 31, the “% of glycopeptide” value was determined as 0% and the “8-11 mers (%)” value was found to be 50%.

Take “APESRPAP (fragment of MUC1; listed as Homo sapiens)”: in test [2], the “class I binding activity” value was “considerable class I binding activity”.

Regarding “PESRPAPGS (fragment of MUC1; listed as Homo sapiens)”, the “class I binding activity” value in test [2] is reported as “considerable class I binding activity”.

For “APESRPAPGS (fragment of MUC1; listed as Homo sapiens)”, the “class I binding activity” value in test [2] was “considerable class I binding activity”.

Take “ST(-GalNAc)APPAHGVT ({Ser-T(GalNAc)}-APPAHGVT)”: in the test with HLA-A0201, the “ligation strength (binding to HLA-A0201)” value is recorded as “strongly reduce binding affinity in comparison with the corresponding nonglycosylated peptide”.

Regarding “SAPESRPAPGS (fragment of MUC1; listed as Homo sapiens)”, the “class I binding activity” value in test [2] is given as “considerable class I binding activity”.

For the molecule “PESRPAPGST (fragment of MUC1; listed as Homo sapiens)”, in test [2], the “class I binding activity” value is “considerable class I binding activity”.

Take “APESRPAPG (fragment of MUC1; listed as Homo sapiens)”: in test [2], the “class I binding activity” value is reported as “considerable class I binding activity”.

With STAPPAHGVT [STA10], the “class I binding activity” value in test [2] is “considerable class I binding activity”. Moreover, in the test with HLA-A0201, the “ligation strength (binding to HLA-A0201)” value is listed as “strongest binders” and the “change of ligation strength by introduction of GalNAc” value was “reducing it to the level of the negative control”.

Take “SAPESRPAPG (fragment of MUC 1; listed as Homo sapiens)”: the “class I binding activity” value in test [2] is “considerable class I binding activity”.

With “S(-GalNAc)APDTRPAPG ({Ser(GalNAc)}-APDTRPAPG)”, the “ligation strength (binding to HLA-A0201)” value in the test with HLA-A0201 is given as “strongly reduce binding affinity in comparison with the corresponding nonglycosylated peptide”.

For “AHGVTSAPESRPAPGSTAPPA [GP8] (AHGVTS(O‑glycan)APESRPAPGSTAPPA; reading uncertain; also: glycan structure not given here; listed as Homo sapiens) [chemically synthesized MUC1 derived glycopeptide, glycosylation site not readable]”, in test [1], the “AVERAGE FRAGMENT LENGTH” value came out at 10.5, the “NUMBER OF FRAGMENTS” value came to 46, the “% of glycopeptide” value came to 21% and the “8-11 mers (%)” value worked out at 35%.

As for HGVTSAPESRPAPGSTAPPA [GP7], in test [1], the “AHG 8 to -11” value is recorded as 8%, the “PAP8 to -11” value worked out at 31%, the “SAP8 to -11” value was determined as 61% and the “AVERAGE FRAGMENT LENGTH” value amounted to 11.7. Moreover, in test [1], the “NUMBER OF FRAGMENTS” value came out at 61; the “% of glycopeptide” value is 40% and 39%; the “8-11 mers (%)” value worked out at 29%.

STAPPAHGV [STA9]: in the test with HLA-A0201, the “ligation strength (binding to HLA-A0201)” value was “strongest binders” and the “change of ligation strength by introduction of GalNAc” value is given as “reducing it to the level of the negative control”.

B1: A(HGVTSAPESRPAPGSTAPPA)x3 (peptide, listed as Homo sapiens)
chain: AHGVTSAPESRPAPGSTAPPAHGVTSAPESRPAPGSTAPPAHGVTSAPESRPAPGSTAPPA
modifications: Fragment of digested MUC1
Regarding B1, in test [1], the “AVERAGE FRAGMENT LENGTH” value is on record as 17.5, the “NUMBER OF FRAGMENTS” value turned out to be 105, the “% of glycopeptide” value worked out at 0% and the “8-11 mers (%)” value amounted to 26%.
